Results published in publication PMC6255760 (Nature Communications, 2018).

Assays:
[1] = biological target: the molecule itself; assay: induced oligomerization assay; RIP2 and NLRC4–CARD monomers each mixed with their own and with other seed complexes (Supplementary Figure 4d)
[2] = biological target: the molecule itself; assay: negative stain EM; recombinant SNAP–RIP2–CARD seeds co-incubated with refolded monomers (about 20 μM monomer, 10:1 monomer to seed, overnight); SNAP removed with 3C protease for the core filaments; 49,000x
[3] = biological target: the molecule itself; assay: SEC; size-exclusion profiles of the purified NOD1/RIP2 and NOD2/RIP2 fusion proteins
[4] = biological target: the molecule itself; assay: cryo-EM structure; helical reconstruction of core RIP2–CARD–EM filaments, 4.1 Å (FSC = 0.143), Relion 2.0
[5] = biological target: the molecule itself; assay: negative stain EM; FLAG-tagged proteins overexpressed in HEK293T, purified with anti-FLAG M2 agarose beads and concentrated; filaments looked for

B1: SNAP–RIP2–CARD (domain or fragment, human, UniProt O43353 432-540, looked up)
chain: QPGIAQQWIQSKREDIVNQMTEACLNQSLDALLSRDLIMKEDYELVSTKPTRTSKVRQLLDTTDIQGEEFAKVIVQKLKDNKQMGLQPYPEILVVSRSPSLNLLQNKSM
modifications: BG-Alexa Fluor 647 on monomers, BG-Alexa Fluor 488 on seeds (native gel assay)
notes: RIP2 (RIPK2), human, CARD domain residues 432–540; a 3C protease site lies between SNAP and the CARD; the methods also name a RIP2–CARD (432–540)–SNAP; also called SNAP–RIP2–CARD seeds; SNAP–RIP2–CARD monomers; source: E. coli BL21(DE3), purified (Ni-NTA, SEC): oligomeric seed fraction; not shown: SNAP-tag, N-terminal, kept
binding result [1]: binds

B2: core RIP2–CARD filament (SNAP removed) (domain or fragment, human, UniProt O43353 432-540, looked up)
chain: QPGIAQQWIQSKREDIVNQMTEACLNQSLDALLSRDLIMKEDYELVSTKPTRTSKVRQLLDTTDIQGEEFAKVIVQKLKDNKQMGLQPYPEILVVSRSPSLNLLQNKSM
notes: RIP2 (RIPK2), human, CARD domain residues 432–540; also called 3C-protease-digested core RIP2–CARD thin filament; source: E. coli BL21(DE3); extended SNAP–RIP2–CARD filaments digested with 3C protease, purified (Superose 6); not shown: SNAP-tag, N-terminal, cleaved
binding result [2]: binds

B3: top-down NOD2/RIP2 fusion construct (other)
chain: QPGIAQQWIQSKERDIVNQMTEACLNQSLDALLSRDLIMKEDYELVSTKPTRTSKVRQLLDTTDIQGEEFAKVIVQKLKDNKQMGLQPYPEILVVSRSPSLNLLQNKSMMCSQEAFQAQRSQLVELLVSGSLEGFESVLDWLLSWEVLSWEDYEGFHLLGQPLSHLARRLLDTVWNKGTWACQKLIAAAQEAQADSQSPKLHGCWDPHSLHPARDLQSHRPAIVRRLHSHVENMLDLAWERGFVSQYECDEIRLPIFTPSQRARRLLDLATVKANGLAAFLLQHVQELPVPLALPLEAATCK
stoichiometry N [3]: ~4

B4: top-down NOD1/RIP2 fusion construct (other)
chain: QPGIAQQWIQSKERDIVNQMTEACLNQSLDALLSRDLIMKEDYELVSTKPTRTSKVRQLLDTTDIQGEEFAKVIVQKLKDNKQMGLQPYPEILVVSRSPSLNLLQNKSMMEEQGHSEMEIIPSESHPHIQLLKSNRELLVTHIRNTQCLVDNLLKNDYFSAEDAEIVCACPTQPDKVRKILDLVQSKGEEVSEFFLYLLQQLADAYVDLRPWLLEIGFS
stoichiometry N [3]: ~4

B5: RIP2–CARD–EM (domain or fragment, human)
chain: VDEALREAQTKSAQPGIAQQWIQSKREDIVNQMTEACLNQSLDALLSRDLIMKEDYELVSTKPTRTSKVRQLLDTTDIQGEEFAKVIVQKLKDNKQMGLQPYPEILVVSRS
notes: 13 extra amino acids (13aa) attached to the N-terminus of residue 432 of RIP2–CARD; RIP2 (RIPK2), human, CARD domain 432–529 (last 11 residues of 432–540 removed); also called core RIP2–CARD–EM; RIP2–CARD (432–529); source: E. coli BL21(DE3); not shown: SNAP-tag, N-terminal, cleaved
binding result [4]: binds

B6: FLAG–RIP2-kinase-NLRC4–CARD (other, human, UniProt O43353 1-431, looked up)
chain: MNGEAICSALPTIPYHKLADLRYLSRGASGTVSSARHADWRVQVAVKHLHIHTPLLDSERKDVLREAEILHKARFSYILPILGICNEPEFLGIVTEYMPNGSLNELLHRKTEYPDVAWPLRFRILHEIALGVNYLHNMTPPLLHHDLKTQNILLDNEFHVKIADFGLSKWRMMSLSQSRSSKSAPEGGTIIYMPPENYEPGQKSRASIKHDIYSYAVITWEVLSRKQPFEDVTNPLQIMYSVSQGHRPVINEESLPYDIPHRARMISLIESGWAQNPDERPSFLKCLIELEPVLRTFEEITFLEAVIQLKKTKLQSVSSAIHLCDKKKMELSLNIPVNHGPQEESCGSSQLHENSGSPETSRSLPAPQDNDFLSRKAQDCYFMKLHHCPGNHSWDSTISGSQRAAFCDHKTTPCSSAIINPLSTAGNSERLMNFIKDNSRALIQRMGMTVIKQITDDLFVWNVLNREEVNIICCEKVEQDAARGIIHMILKKGSESCNLFLKSLKEWNYPLFQDLNGQSLFHQTSEGDLDD
notes: RIP2 (RIPK2), human, what is left of 1–540 when the CARD domain (432–540) is replaced; NLRC4 CARD, human, residues 1–100, in place of the RIP2–CARD domain; the limit 431 is worked out from the replaced stretch 432–540; also called chimeric RIP2; NLRC4–CARD swapped construct; source: HEK293T, transfected; purified from cellular extracts (EM); in total cellular extracts (sedimentation); not shown: …
binding result [5]: binds
